In patent US10772928B2, “Modulation and detection of a neuronal alternative splicing regulatory network for treatment and diagnosis of neurological disorders” (The Governing Council of the University of Toronto, priority 2014, dated 2020):

T1: nSR100 (Mus musculus, UniProt Q8BKA3)
T1 construct: host or cells: mouse N2A cells
T1 sequence (Q8BKA3 1-608): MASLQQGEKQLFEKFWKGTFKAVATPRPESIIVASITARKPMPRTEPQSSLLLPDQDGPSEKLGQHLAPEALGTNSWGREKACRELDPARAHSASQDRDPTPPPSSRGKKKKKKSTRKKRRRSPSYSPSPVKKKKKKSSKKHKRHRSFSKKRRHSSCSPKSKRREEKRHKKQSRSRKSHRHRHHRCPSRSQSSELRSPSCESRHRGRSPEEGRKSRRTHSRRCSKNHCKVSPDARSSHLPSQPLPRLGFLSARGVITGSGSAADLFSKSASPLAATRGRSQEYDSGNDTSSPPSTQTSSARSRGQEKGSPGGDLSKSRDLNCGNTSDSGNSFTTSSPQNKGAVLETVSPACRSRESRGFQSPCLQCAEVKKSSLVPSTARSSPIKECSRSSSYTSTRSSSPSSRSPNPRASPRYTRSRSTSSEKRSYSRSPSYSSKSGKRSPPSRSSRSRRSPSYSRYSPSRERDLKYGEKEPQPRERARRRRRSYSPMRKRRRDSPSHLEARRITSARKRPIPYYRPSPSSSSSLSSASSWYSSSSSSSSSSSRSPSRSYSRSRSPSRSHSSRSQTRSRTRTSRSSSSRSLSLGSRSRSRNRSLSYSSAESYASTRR


Target: T1, nSR100
Experiment: AP-MS nSR100 interaction partners from mouse N2A cells (Table 5)
Assay type: binding
Conditions: for AvgP (average of the SAINT scores) / MaxP (maximal SAINT score): bait Srrm4; for FoldChange between the prey Avg spectra of the bait and control purifications: bait Srrm4, 0.1 added to prevent division by 0; for AvgSpec (average number of spectra per replicate): bait Srrm4, 2 replicates; for Spectra (number of spectra for the prey in the purification of the bait): AP-MS; for SpecSum: bait Srrm4, sum of spectra over 2 replicates
[1] = bait Srrm4, biological replicate 1 (first number of the cell)
[2] = bait Srrm4, biological replicate 2 (second number of the cell)

Description: By applying affinity purification coupled to mass-spectrometry (AP-MS), several interaction nSR100 partner proteins were detected that provide insight into mechanisms of post-translational regulation of nSR100 levels.

AvgP (average of the SAINT scores)	MaxP (maximal SAINT score)	FoldChange between the prey Avg spectra of the bait and control purifications	AvgSpec (average number of spectra per replicate)	Spectra (number of spectra for the prey in the purification of the bait) [1]	Spectra (number of spectra for the prey in the purification of the bait) [2]	SpecSum	Molecule
1	1	45	4.5	4	5	9	Prpf4b (protein, UniProt Q61136 2-1007, looked up) Serine/threonine-protein …: AATEPPSLREQAEMDDADNSEKSVNEENGEVSEDQSQNKHSRHKKKKHKHRSKHKKHKHSSEEDRDKKHKHKHKHKKHKRKEVIEASDKEGLSPAKRTKLDDLALLEDLEKQRALIKAELDNELMEGKVQSGMGLILQGYESGSEEEGEIHEKARNGNRSSTRSSSTRGKLEITDNKNSAKKRSKSRSKERTRHRSDKRKSKGAGEMLREKANRSKSKERRKSKSPSKRSKSQDQARKSKSPPLRRRSQEKVGKARSPAEEKMKSEEKGKIKDRKKSPIVNERSRDRSKKSKSPVDLRDKSKDRRSRSKERKSKRSEIDKEKKPIKSPSKDASSGKENRSPSRRPGRSPKRRSLSPKLRDKSRRSRSPLLNDRRSKQSKSPSRTLSPGRRAKSRSLERKRREPERRRLSSPRTRPRDDILGRCERSKDASPINRWSPTRRRSRSPIRRRSRSPLRRSRSPRRRSRSPRRRDRSRRSRSRLRRRSRSRGGHRRRSRSKVKEDKFKGSLSEGMKVEQESSSDDNLEDFDVEEEDEEALIEQRRIQRQAIVQKYKYLAEDSNISVPSEPSSPQSSTRSRSPSPDDILERVAADVKEYERENVDTFEASVKAKHNLMTVEQNNGSSQKKILAPDMFTESDDMFAAYFDSARLRAAGIGKDFKENPNLRDNWTDAEGYYRVNIGEVLDKRYNVYGYTGQGVFSNVVRARDNARANQEVAVKIIRNNELMQKTGLKELEFLKKLNDADPDDKFHCLRLFRHFYHKQHLCLVFEPLSMNLREVLKKYGKDVGLHIKAVRSYSQQLFLALKLLKRCNILHADIKPDNILVNESKTILKLCDFGSASHVADNDITPYLVSRFYRAPEIIIGKSYDYGIDMWSVGCTLYELYTGKILFPGKTNNHMLKLAMDLKGKMPNKMIRKGVFKDQHFDQNLNFMYIEVDKVTEREKVTVMSTINPTKDLLADLIGCQRLPEDQRKKVHQLKDLLDQILMLDPAKRISINQALQHAFIQEKI
1	1	3.45	112	92	132	224	Sf3b1 (protein, UniProt Q99NB9 1-1304, looked up) Splicing factor 3B subunit 1: MAKIAKTHEDIEAQIREIQGKKAALDEAQGVGLDSTGYYDQEIYGGSDSRFAGYVTSIAATELEDDDDDYSSSTSLLGQKKPGYHAPVALLNDIPQSTEQYDPFAEHRPPKIADREDEYKKHRRTMIISPERLDPFADGGKTPDPKMNARTYMDVMREQHLTKEEREIRQQLAEKAKAGELKVVNGAAASQPPSKRKRRWDQTADQTPGATPKKLSSWDQAETPGHTPSLRWDETPGRAKGSETPGATPGSKIWDPTPSHTPAGAATPGRGDTPGHATPGHGGATSSARKNRWDETPKTERDTPGHGSGWAETPRTDRGGDSIGETPTPGASKRKSRWDETPASQMGGSTPVLTPGKTPIGTPAMNMATPTPGHIMSMTPEQLQAWRWEREIDERNRPLSDEELDAMFPEGYKVLPPPAGYVPIRTPARKLTATPTPLGGMTGFHMQTEDRTMKSVNDQPSGNLPFLKPDDIQYFDKLLVDVDESTLSPEEQKERKIMKLLLKIKNGTPPMRKAALRQITDKAREFGAGPLFNQILPLLMSPTLEDQERHLLVKVIDRILYKLDDLVRPYVHKILVVIEPLLIDEDYYARVEGREIISNLAKAAGLATMISTMRPDIDNMDEYVRNTTARAFAVVASALGIPSLLPFLKAVCKSKKSWQARHTGIKIVQQIAILMGCAILPHLRSLVEIIEHGLVDEQQKVRTISALAIAALAEAATPYGIESFDSVLKPLWKGIRQHRGKGLAAFLKAIGYLIPLMDAEYANYYTREVMLILIREFQSPDEEMKKIVLKVVKQCCGTDGVEANYIKTEILPPFFKHFWQHRMALDRRNYRQLVDTTVELANKVGAAEIISRIVDDLKDEAEQYRKMVMETIEKIMGNLGAADIDHKLEEQLIDGILYAFQEQTTEDSVMLNGFGTVVNALGKRVKPYLPQICGTVLWRLNNKSAKVRQQAADLISRTAVVMKTCQEEKLMGHLGVVLYEYLGEEYPEVLGSILGALKAIVNVIGMHKMTPPIKDLLPRLTPILKNRHEKVQENCIDLVGRIADRGAEYVSAREWMRICFELLELLKAHKKAIRRATVNTFGYIAKAIGPHDVLATLLNNLKVQERQNRVCTTVAIAIVAETCSPFTVLPALMNEYRVPELNVQNGVLKSLSFLFEYIGEMGKDYIYAVTPLLEDALMDRDLVHRQTASAVVQHMSLGVYGFGCEDSLNHLLNYVWPNVFETSPHVIQAVMGALEGLRVAIGPCRMLQYCLQGLFHPARKVRDVYWKIYNSIYIGSQDALIAHYPRIYNDDKNTYIRYDLDYIL

Second part, the molecule before the results:

Molecule	AvgP (average of the SAINT scores)	MaxP (maximal SAINT score)	FoldChange between the prey Avg spectra of the bait and control purifications	AvgSpec (average number of spectra per replicate)	Spectra (number of spectra for the prey in the purification of the bait) [1]	Spectra (number of spectra for the prey in the purification of the bait) [2]	SpecSum
Sf3a1 (protein, UniProt Q8K4Z5 1-791, looked up) Splicing factor 3A subunit 1: MQAGPVQAVPPPPPVATESKQPIEEEASSKEDPTPSKPVVGIIYPPPEVRNIVDKTASFVARNGPEFEARIRQNEINNPKFNFLNPNDPYHAYYRHKVSEFKEGKAQEPSAAIPKVMQQQQQATQQQLPQKVQAQVIQETIVPKEPPPEFEFIADPPSISAFDLDVVKLTAQFVARNGRQFLTQLMQKEQRNYQFDFLRPQHSLFNYFTKLVEQYTKILIPPKGLFSKLKKEAENPREVLDQVCYRVEWAKFQERERKKEEEEKEKERVAYAQIDWHDFVVVETVDFQPNEQGNFPPPTTPEELGARILIQERYEKFGESEEVEMEVESDEEDQEKAEETPSQLDQDTQVQDMDEGSDDEEEGQKVPPPPETPMPPPLPPTPDQVIVRKDYDPKASKPLPPAPAPDEYLVSPITGEKIPASKMQEHMRIGLLDPRWLEQRDRSIREKQSDDEVYAPGLDIESSLKQLAERRTDIFGVEETAIGKKIGEEEIQKPEEKVTWDGHSGSMARTQQAAQANITLQEQIEAIHKAKGLVPEDDTKEKIGPSKPNEIPQQPPPPSSATNIPSSAPPITSVPRPPAMPPPVRTTVVSAVPVMPRPPMASVVRLPPGSVIAPMPPIIHAPRINVVPMPPAAPPIMAPRPPPMIVPTAFVPAPPVAPVPAPAPMPPVHPPPPMEDEPPSKKLKTEDSLMPEEEFLRRNKGPVSIKVQVPNMQDKTEWKLNGQGLVFTLPLTDQVSVIKVKIHEATGMPAGKQKLQYEGIFIKDSNSLAYYNMASGAVIHLALKERGGRKK	1	1	8.33	25	20	30	50
Rbm25 (protein, UniProt B2RY56 1-838, looked up) RNA-binding protein 25: MSFPPHLNRPPMGIPALPPGIPPPQFPGFPPPVPPGTPMIPVPMSIMAPAPTVLVPTVSMVGKHLGARKDHPGLKLKENDENCGPTTTVFVGNISEKASDMLIRQLLAKCGLVLSWKRVQGASGKLQAFGFCEYKEPESTLRALRLLHDLQIGEKKLLVKVDAKTKAQLDEWKAKKKANGNARPETVTNDDEEALDEETKRRDQMIKGAIEVLIREYSSELNAPSQESDSHPRKKKKEKKEDIFRRFPVAPLIPYPLITKEDINAIEMEEDKRDLISREISKFRDTHKKLEEEKGKKEKERQEIEKERRERERERERERERREREREREREREREKEKERERERERDRDRDRTKERDRDRERDRDRDRERSSDRNKDRSRSREKSRDREREREREREREREREREREREREREREREREREKDKKRDREEDEEDAYERRKLERKLREKEAAYQERLKNWEIRERKKTREYEKEAEREEERRREMAKEAKRLKEFLEDYDDDRDDPKYYRGSALQKRLRDREKEMEADERDRKREKEELEEIRQRLLAEGHPDPDAELQRMEQEAERRRQPQIKQEPESEEEEEEKQEKEEKREEPVEEEEEPEQKPCLKPTLRPISSAPSVSSASGNATPNTPGDESPCGIIIPHENSPDQQQPEEHRPKIGLSLKLGASNSPGQPNSVKRKKLPVDSVFNKFEDEDSDDVPRKRKLVPLDYGEDDKNATKGTVNTEEKRKHIKSLIEKIPTAKPELFAYPLDWSIVDSILMERRIRPWINKKIIEYIGEEEATLVDFVCSKVMAHSSPQSILDDVAMVLDEEAEVFIVKMWRLLIYETEAKKIGLVK	1	1	180	18	16	20	36
Sf1 (protein, UniProt Q64213 2-653, looked up) Splicing factor 1: ATGANATPLDFPSKKRKRSRWNQDTMEQKTVIPGMPTVIPPGLTREQERAYIVQLQIEDLTRKLRTGDLGIPPNPEDRSPSPEPIYNSEGKRLNTREFRTRKKLEEERHTLITEMVALNPDFKPPADYKPPATRVSDKVMIPQDEYPEINFVGLLIGPRGNTLKNIEKECNAKIMIRGKGSVKEGKVGRKDGQMLPGEDEPLHALVTANTMENVKKAVEQIRNILKQGIETPEDQNDLRKMQLRELARLNGTLREDDNRILRPWQSSETRSITNTTVCTKCGGAGHIASDCKFQRPGDPQSAQDKARMDKEYLSLMAELGEAPVPASVGSTSGPATTPLASAPRPAAPASNPPPPSLMSTTQSRPPWMNSGPSENRPYHGMHGGGPGGPGGGPHSFPHPLPSLTGGHGGHPMQHNPNGPPPPWMQPPPPPMNQGPHPPGHHGPPPMDQYLGSTPVGSGVYRLHQGKGMMPPPPMGMMPPPPPPPSGQPPPPPSGPLPPWQQQQQQPPPPPPPSSSMASSTPLPWQQNTTTTTTSAGTGSIPPWQQQQAAAAASPGTPQMQGNPTMVPLPPGVQPPLPPGAPPPPPCSIECLLCLLSSPNSLCLSPNRAARIPPRGSDGPSHESEDFPRPLVTLPGRQPQQRPWWTGWFGKAA	1	1	11.92	71.5	70	73	143
